Assay [1] deals with T1, recombinant human IL-6 (human, UniProt P05231 30-212, limits assumed).
T1 construct: also called rhIL6; human recombinant IL-6
The assay is described as follows: competition ELISA, rhIL-6 in solution against captured IL-6 (Affinity (nM) by IC50 ELISA). The procedure:
(§1) Briefly, plates were coated with 2 μg/ml of mBE4 capture antibody in coating buffer, 100 μl per well. The plates were incubated overnight. Next, the plates were washed 3 times and tapped dry. The plates were then blocked with 200 μl per well of Assay Diluent or 10% FBS in PBS and incubated for 2 hours. […] The reaction was left at RT for 3-4 hours. […] Next, the plates were washed 3 times and tapped dry. […] The plates were incubated for 1-2 hours. The plates were washed 3 times and tapped dry. […] The plates were incubated at RT for 2 hours. (Therefore, any unbound mAb at this point will be measured by ELISA). Plates were then washed 5 times and tapped dry. 100 μl of detection Ab goat anti-human IgG F(ab)′2-HRP (Jackson lab) was added at 1:20,000 dilutions or 1:40,000 dilutions (depending on lot) and the plates were incubated for 1-2 hours. The plates were washed 7 times and tapped dry. Next, the Developer Substrate (equal parts of each reagent in the kit) was pre-mixed and allowed to warm to room temperature before use. Then 100 μl of Developer was added to each well. The plates were allowed to develop for 15 minutes un-sealed in a drawer in the dark. Finally, developing was stopped by adding 100 μl of 2N H₂SO₄ to each well and plates were read as Endpoint at 450 nm-[…].
(§2) IC50 ELISA was performed as described above. Affinity analysis by Biacore was performed according to manufacturer protocols using HBS-EP buffer (Biacore AB).
(ELISA stands for enzyme-linked immunosorbent assay.)

In assay [2] the target is T1, recombinant human IL-6. As to the kind of experiment: Biacore 2000, mAb captured on anti-human IgG CM5 chip, human IL-6 40-1.25 nM injected. The procedure: as §2
(In general: SPR reads the build-up and loss of mass on a sensor chip optically.)

Assay [3] has as its target T1, recombinant human IL-6. As to the kind of experiment: competition ELISA, rhIL-6 in solution against captured IL-6. The procedure:
as §1

The target in another assay is T2, recombinant rat IL-6 (rat, UniProt P20607 25-211).
T2 sequence (looked up): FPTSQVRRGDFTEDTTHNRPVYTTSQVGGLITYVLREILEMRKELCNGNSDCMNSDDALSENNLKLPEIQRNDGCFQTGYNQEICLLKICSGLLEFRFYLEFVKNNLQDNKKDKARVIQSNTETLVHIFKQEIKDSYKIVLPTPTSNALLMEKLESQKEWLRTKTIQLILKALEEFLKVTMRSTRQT
The assay is described as follows: ELISA on coated rat IL-6; human mAbs detected with rabbit anti-human IgG-HRP; series 100, 50, 25, 12.5 ng/ml (antibody by paragraph 42; headed mIL-6 (ng/ml) on the sheet). The method, then: (§3) For sample “0,” no antibody was added. […] Each column represents a mean of two experiments +/− standard deviation.
(§4) For experiments using human monoclonal antibodies, IgG1 Kappa (human myeloma IgG1; Sigma-Aldrich Co.) mAb was used as a control. Rabbit anti-human IgG-HRP (Dako) was added at a dilution of 1/10,000 at 100 μl/well for detection of mAbs. […] For pAbs, Streptavidin-HRP (Prozyme) was added for detection at 100 μl/well. Antibodies were applied at concentrations of 12.5, 25, 50, and 100 ng/ml.

The target of the next assay is T3, recombinant murine IL-6 (murine, UniProt P08505 25-211).
T3 sequence (looked up): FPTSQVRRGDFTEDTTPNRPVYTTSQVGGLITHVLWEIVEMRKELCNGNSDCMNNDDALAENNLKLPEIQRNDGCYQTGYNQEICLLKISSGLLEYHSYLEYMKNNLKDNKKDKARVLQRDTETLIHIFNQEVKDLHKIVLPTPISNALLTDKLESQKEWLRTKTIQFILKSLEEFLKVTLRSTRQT
The assay is described as follows: ELISA on coated murine IL-6; human mAbs detected with rabbit anti-human IgG-HRP; series 100, 50, 25, 12.5 ng/ml (antibody by paragraph 42; headed mIL-6 (ng/ml) on the sheet). The method, then: as §3, §4

Numbering of substitutions follows the chain as printed.

What is called IC50 is the concentration needed to halve the response being measured. The term Kd denotes the free concentration of one partner at which half of the binding sites on the other are occupied at equilibrium, for simple one-to-one binding.

B1: mAb 416 (antibody, V domains shown)
VH: QVTLKESGPTLVKPTQTLTLTCSFSGFSLSTSGVGVGWVRQPPGKALEWLAFIFWDDDKYYSPSLESRLTITKDTSKNQVVLTMTNMDPVDTATYYCARSYDDYLYYALDYWGQGTLVT
VL: DIQMTQSPSSLSAFVGDGVTMTCWASQSINDYLNWYHQRPGEAPELLVFAASNLQIGVPSRFRGSGSETYFTLTINSLQPEDSGTYFCQNGHSFPLTFGGGTKLEI
As to B1, the IC50 worked out at 56 pM in the assay with recombinant human IL-6 [1] and 600 pM with recombinant human IL-6 [3]. The Kd with recombinant human IL-6 [2] stood at 300 pM.

B2: mAb 1340 (antibody, V domains shown)
VH: B1 VH with F54W, Y101A, A108S, L109F, Y111T
VL: B1 VL with H92W
As for B2, the IC50 with recombinant human IL-6 [1] and with recombinant human IL-6 [3] was 28 pM in each case.

B3: mAb 1338 (antibody, V domains shown)
VH: B1 VH with F54W, Y101A, A108S, L109F, Y111T
VL: B1 VL with N90S
Consider B3, for which the IC50 in the assay with recombinant human IL-6 [1] and with recombinant human IL-6 [3] was 31 pM throughout. Also, the Kd with recombinant human IL-6 [2] was determined as 72 pM.

B4: mAb 1259 (antibody, V domains shown)
VH: B1 VH with F54W, Y101A, A108S, L109F, Y111T
VL: B1 VL
As to B4, the IC50 with recombinant human IL-6 [1] and with recombinant human IL-6 [3] was 28 pM each time. In the assay with recombinant human IL-6 [2], the Kd worked out at 93 pM.

B5: mAb 1337 (antibody, V domains shown)
VH: B1 VH with F54W, Y101A, A108S, L109F, Y111T
VL: B1 VL with N90H
For B5, the IC50 with recombinant human IL-6 [1] and with recombinant human IL-6 [3] was 47 pM throughout.

B6: mAb 285 (antibody, V domains shown)
VH: QVTLKESGPALVKPTQTLTLTCTFSGFSLSTSGMCVSWIRQPPGKALEWLTLIYWDDDKRYSPSLETRLTITKDTSKNQVVLTMTNMDPVDTATYYCARSYDDYLYYALDYWGQGTLVT
VL: DVVMTQSPSSVSASVGDRVTITCRASQDIDNFLAWYQQKPGKAPNLLIYKVSSLRSGVPSRFSGSRSGTDFTLTITSLQPEDFATYFCQQTRRFPLTFGPGTKLE
For the molecule B6, the IC50 with recombinant human IL-6 [3] is 2500 pM.

B7: mAb 183 (antibody, V domains shown)
VH: B6 VH with S30T, T51A, S62N, E66R, T67S
VL: DIQMTQSPSSLSASVGDSVTITCRASQSISIYLNWYQQKPGKAPDLLIYATSTLQSGVPSRFSGRGSGTHFTLTIDSLQPEDFATYYCQQTYRNLFTFGQGTKLE
With B7, the half-maximal inhibitory concentration (IC50) with recombinant human IL-6 [3] worked out at 1750 pM.

B8: mAb 182 (antibody, V domains shown)
VH: B6 VH with S30T, T51A, S62N, E66R, T67S
VL: DIQMTQSPSSLSASVGDRVTITCRASQSISTYLNWYQQKLGKAPKLLIYAASSLQSGVPSRFSGSGSGTDFTLTISSLQPEDLATYYCQQSYRPLTFGGGTKLEIK
Take B8: in the assay with recombinant human IL-6 [3], the IC50 is 6300 pM.

B9: mAb 265 (antibody, V domains shown)
VH: B6 VH with S30T, T51A, S62N, E66R, T67S
VL: DIQMTQSPSTLSASVGDRVTITCRASQSMSDYLNWYQQKPGKAPKLLIYSASGLQSGVPSRFSGSGSGTDFTLTIINLQPEDVAAYYCQQSFSFPLTFGPGTKLEIK
Take B9: in the assay with recombinant human IL-6 [3], the IC50 came out at 6200 pM.

B10: mAb 286 (antibody, V domains shown)
VH: B6 VH
VL: DIVMTQSPSSLSASVGDRVTITCRASQTISSYLNWYQQKPGKPPKLLIYAASSLESGVPSRFSGSGSGTEFTLTISSLQPEDLATYYCQQANSFPLTFGGGTKLE
Turning to B10, the IC50 with recombinant human IL-6 [3] worked out at 2500 pM.

B11: mAb 184 (antibody, V domains shown)
VH: B6 VH with S30T, T51A, S62N, E66R, T67S
VL: DIQMTQSPSSLSASVGDSVTVTCRASQKMRTYLHWYQQKPGKAPKLLIYDVSFLQNGVPSRFSGRASGTEFTLTISDLQPEDFATYYCQQSYDTPLTFGQGTKLEIK
As for B11, the IC50 in the assay with recombinant human IL-6 [3] came out at 2400 pM.

B12: mAb 181 (antibody, V domains shown)
VH: B6 VH with S30T, T51A, S62N, E66R, T67S
VL: B10 VL
With B12, in the assay with recombinant human IL-6 [3], the IC50 was 12900 pM.

B13: mAb 242 (antibody, V domains shown)
VH: B1 VH
VL: B10 VL
In the case of B13, the IC50 with recombinant human IL-6 [3] stood at 2200 pM.

B14: mAb 926 (antibody, human IgG1, kappa, V domains shown)
VH: QVTLKESGPTLVKPTQTLTLTCSFSGFSLSTSGVGVGWVRQPPGKALEWLAFIFWDDDKYYSPSLESRLTITKDTSKNQVVLTMTNMDPVDTATYYCARSADDYLYYALDYWGQGTLVTVSS
VL: DIQMTQSPSSLSAFVGDGVTMTCWASQSINDYLNWYHQRPGEAPELLVFAASNLQIGVPSRFRGSGSETYFTLTINSLQPEDSGTYFCQNGHSFPLTFGGGTKLEIKR
On to B14, for which the binding result with recombinant rat IL-6 is given as “no binding (tested: 100 ng/ml)”; with recombinant murine IL-6 it was “no binding (tested: 100 ng/ml (Ab: 0.1 µg/ml in the title))”. Besides, the IC50 came to 33 pM with recombinant human IL-6 [1] and 70 pM with recombinant human IL-6 [3]. Moreover, the Kd in the assay with recombinant human IL-6 [2] is 130 pM.

B15: mAb 297 (antibody, V domains shown)
VH: B14 VH with S23T, G35A, V39I, F52L, Y60H, E66K, A101Y
VL: DIQMTQSPSSLSASVGDSVTITCRASQTISDFLNWYQQKPGKAPKLLIHASSNLQSGVPSRFSGSGSGTDFTLTISDLQPEDFATYSCQQTYSTLGTFGQGTRLE
In the case of B15, the half-maximal inhibitory concentration (IC50) in the assay with recombinant human IL-6 [3] worked out at 11500 pM.

B16: mAb 246 (antibody, V domains shown)
VH: B14 VH with S23T, G35A, V39I, F52L, Y60H, E66K, A101Y
VL: EIVLTQSPGTLSLSPGERATLSCRASQTIDSSYLAWYQQKPGQAPRLLVYGASSRATGIPDRFSDSGSGTDFTLTISRLEPEDFAVYYCQQYAKSPITFGQGTKLE
Consider B16, for which the IC50 with recombinant human IL-6 [3] was 5500 pM.

B17: mAb 248 (antibody, V domains shown)
VH: B14 VH with S23T, G35A, V39I, F52L, Y60H, E66K, A101Y
VL: B10 VL
In the case of B17, the IC50 with recombinant human IL-6 [3] is 2000 pM.

B18: mAb 247 (antibody, V domains shown)
VH: B14 VH with S23T, G35A, V39I, F52L, Y60H, E66K, A101Y
VL: B6 VL
In the case of B18, the concentration for half-maximal inhibition (IC50) with recombinant human IL-6 [3] came to 4000 pM.

For the origin of these results see patent US20080075726A1 (VACCINEX, published 2008).
